Reference: article doi:10.1101/2024.05.10.593535, “Single residue changes to the histone core catalyze neofunctionalization and impose fitness trade-offs” (bioRxiv, 2024)

Target: T1, S. pombe 14xHis-Spt6(282-1159) (S. pombe, UniProt Q09915 282-1159)
T1 construct: transcription elongation factor Spt6, S. pombe, truncated version corresponding to residues 282-1159; Held on Ni-NTA resin by the 14xHis tag in the pulldowns; also called PZH_670; source: E. coli BL21(DE3), purified (Ni Sepharose, dialysis)
T1 sequence (looked up): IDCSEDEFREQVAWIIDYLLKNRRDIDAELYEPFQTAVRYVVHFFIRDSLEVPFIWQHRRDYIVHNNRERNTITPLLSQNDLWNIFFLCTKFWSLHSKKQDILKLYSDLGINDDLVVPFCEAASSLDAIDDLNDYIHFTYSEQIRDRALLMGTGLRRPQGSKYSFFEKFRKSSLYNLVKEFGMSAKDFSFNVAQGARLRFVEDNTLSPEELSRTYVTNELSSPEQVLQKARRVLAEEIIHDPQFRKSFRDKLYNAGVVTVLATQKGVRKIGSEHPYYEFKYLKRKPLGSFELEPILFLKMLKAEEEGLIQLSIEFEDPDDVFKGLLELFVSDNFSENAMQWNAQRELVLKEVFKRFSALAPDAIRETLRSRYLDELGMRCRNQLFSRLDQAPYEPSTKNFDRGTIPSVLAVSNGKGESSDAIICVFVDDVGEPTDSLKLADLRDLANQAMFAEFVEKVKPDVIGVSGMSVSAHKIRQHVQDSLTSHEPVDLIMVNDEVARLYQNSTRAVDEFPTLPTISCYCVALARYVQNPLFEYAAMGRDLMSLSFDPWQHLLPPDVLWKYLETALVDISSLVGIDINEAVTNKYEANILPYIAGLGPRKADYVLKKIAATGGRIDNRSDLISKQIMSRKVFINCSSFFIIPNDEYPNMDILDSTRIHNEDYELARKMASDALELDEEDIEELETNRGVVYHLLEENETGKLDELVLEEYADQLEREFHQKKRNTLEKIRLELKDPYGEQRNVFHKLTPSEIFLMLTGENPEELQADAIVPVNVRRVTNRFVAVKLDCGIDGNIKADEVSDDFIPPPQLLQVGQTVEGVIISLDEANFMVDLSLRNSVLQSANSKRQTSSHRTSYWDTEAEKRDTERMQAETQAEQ
Test: pull-down; 14xHis-Spt6(282-1159) bound to Ni-NTA resin as bait, recombinant histone fusion as prey; 50 mM Tris pH 8, 150 mM NaCl, 2.5 mM DTT, 0.1% tween-20, RT; washing under physiological salt (150 mM NaCl) or stringent (300 mM NaCl) conditions; colloidal Coomassie staining
Details: both partners purified

binding result: binds
B1: S. pombe Pht1 (H2A.Z), full-length N-terminal GST fusion (natural protein)
chain: not shown
notes: histone H2A.Z (Pht1), S. pombe, full length; also called full-length Pht1
